Results reported in publication doi:10.1101/2021.12.23.474050 (bioRxiv, 2021).

B1: LY-CoV555 ScFv (scFv, V domains shown)
VH: QVQLVQSGAEVKKPGSSVKVSCKASGGTFSNYAISWVRQAPGQGLEWMGRIIPILGIANYAQKFQGRVTITADKSTSTAYMELSSLRSEDTAVYYCARGYYEARHYYYYYAMDVWGQGTAVTVSS
VL: not shown
B2: REGN-10987 ScFv (scFv, V domains shown)
VH: QVQLVESGGGVVQPGRSLRLSCAASGFTFSNYAMYWVRQAPGKGLEWVAVISYDGSNKYYADSVKGRFTISRDNSKNTLYLQMNSLRTEDTAVYYCASGSDYGDYLLVYWGQGTLVTVSS
VL: QSALTQPASVSGSPGQSITISCTGTSSDVGGYNYVSWYQQHPGKAPKLMIYDVSKRPSGVSNRFSGSKSGNTASLTISGLQSEDEADYYCNSLTSISTWVFGGGTKLTVL

Target: wild-type (WT) RBD of the SARS-CoV-2 spike protein (SARS-CoV-2, UniProt P0DTC2)
Experiment: ITC

Binder	Kd [nM]
B1	3.8 ± 1.9
B2	34.3 ± 8.1
